In the supplement of paper PMC12764529:
± gives the half width of the 95% confidence interval.

Assays:
[1] = folding stability dG unfold (combined trypsin and chymotrypsin); higher = more stable
Method in brief: (§1)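 Sequencing followed digestion of designed mini-proteins with trypsin and chymotrypsin, each at 11 concentrations in threefold dilutions together with a no-protease condition. The mini-proteins were under 80 residues, had no cysteine, sat in a PA-tagged cDNA display construct, and were kept only if AlphaFold2 dimer inter-PAE was above 15. From the counts, Bayesian fitting gave K50, and unfolding free energy was derived against a sequence-predicted unfolded-state K50 and a shared folded-state K50, per protease or combined.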

[2] = folding stability dG unfold from chymotrypsin proteolysis; higher = more stable
Method in brief: as §1

[3] = folding stability dG unfold from trypsin proteolysis; higher = more stable
Method in brief: as §1

Sequence: SAGGSAGGSAGGSGMSVKREVLEVEEFPGPGRVVRVLERVTLPDGTELLREIEEVIDLLSAGGSAGGSAGGS [r4_50_JUSTAS]
- folding stability dG unfold [1]: 0.871 ± 0.058 kcal/mol
- folding stability dG unfold [2]: 1.12 ± 0.049 kcal/mol
- folding stability dG unfold [3]: 0.219 ± 0.068 kcal/mol

Sequence: SAGGSAGGSAGGSGMVEVVSPDLSPEELKERIRKELGDPSVKVEVTTLSDGTQLARVPASAGGSAGGSAGGS [r4_408_JUSTAS]
- folding stability dG unfold [1]: -0.365 ± 0.12 kcal/mol
- folding stability dG unfold [2]: -0.0859 ± 0.061 kcal/mol
- folding stability dG unfold [3]: -1.74 ± 0.72 kcal/mol

Sequence: SAGGSAGGSAGGSGNYVPGPSLVTFYDPKTNKWTVVKSAPEEAVKLKASLPENVAKISLSAGGSAGGSAGGS [r4_282_JUSTAS]
- folding stability dG unfold [1]: -0.179 ± 0.32 kcal/mol
- folding stability dG unfold [2]: -0.0321 ± 0.27 kcal/mol
- folding stability dG unfold [3]: -0.237 ± 0.21 kcal/mol

Sequence: SAGGSAGGSAGGSGQEIPFMLIIKDPDGELDYIIQIEMRRVPNGGVDIEITEIIPAKDISAGGSAGGSAGGS [r4_117_TrROS]
- folding stability dG unfold [1]: 1.77 ± 0.1 kcal/mol
- folding stability dG unfold [2]: 1.76 ± 0.039 kcal/mol
- folding stability dG unfold [3]: 1.55 ± 0.1 kcal/mol

Sequence: SAGGSAGGSAGGSGYTVKITLKNPDGTESTITISGTGSKEEIINSIKKKYPNNVTKVIESAGGSAGGSAGGS [r4_412_JUSTAS]
- folding stability dG unfold [1]: 1.53 ± 0.31 kcal/mol
- folding stability dG unfold [2]: 1.94 ± 0.069 kcal/mol
- folding stability dG unfold [3]: 1.37 ± 0.16 kcal/mol

Sequence: SAGGSAGGSAGGSKAKKITIWIPPGNINPEVKDQLQKEGINIEIQPIPAKRDPDGKPRWSAGGSAGGSAGGS [r4_294_TrROS]
- folding stability dG unfold [1]: 0.81 ± 0.14 kcal/mol
- folding stability dG unfold [2]: 1.2 ± 0.036 kcal/mol
- folding stability dG unfold [3]: -0.558 ± 0.34 kcal/mol

Sequence: SAGGSAGGSAGGSKKIKIKVPPGARVRLKNGKWFSVEDIEKLKELGIKEIEIEKLPPKKSAGGSAGGSAGGS [r4_47_TrROS_Hall]
- folding stability dG unfold [1]: 0.999 ± 0.081 kcal/mol
- folding stability dG unfold [2]: 1.13 ± 0.09 kcal/mol
- folding stability dG unfold [3]: 0.669 ± 0.037 kcal/mol

Sequence: SAGGSAGGSAGGSKKIVIRVKDKDGNEREIVLEVPEEELTEEEIAELAKKFPNAEIEVLSAGGSAGGSAGGS [r4_422_TrROS_Hall]
- folding stability dG unfold [1]: 1.96 ± 0.13 kcal/mol
- folding stability dG unfold [2]: 1.02 ± 0.053 kcal/mol
- folding stability dG unfold [3]: 2.48 ± 0.13 kcal/mol

Sequence: SAGGSAGGSAGGSKKIYLIKIEIEKKITYDKKTKELKIEEKIKIKIEPLSEEDLEKLLKSAGGSAGGSAGGS [r4_274_TrROS_Hall]
- folding stability dG unfold [1]: 3.69 ± 0.46 kcal/mol
- folding stability dG unfold [2]: 3.83 ± 0.18 kcal/mol
- folding stability dG unfold [3]: 2.97 ± 0.25 kcal/mol

Sequence: SAGGSAGGSAGGSKKTITLDIKVNGYLVKVKLNLETNKLEIVEVYKVSPEKKKLSPKDKSAGGSAGGSAGGS [r4_21_TrROS_Hall]
- folding stability dG unfold [1]: 1.93 ± 0.1 kcal/mol
- folding stability dG unfold [2]: 2.33 ± 0.068 kcal/mol
- folding stability dG unfold [3]: 0.824 ± 0.029 kcal/mol

Sequence: SAGGSAGGSAGGSKKTITVTVLFKDKNGKPVYIAKAKVTLNENGEETIEITEIYPLEDLSAGGSAGGSAGGS [r4_117_TrROS_Hall]
- folding stability dG unfold [1]: 2.34 ± 0.27 kcal/mol
- folding stability dG unfold [2]: 2.36 ± 0.15 kcal/mol
- folding stability dG unfold [3]: 1.8 ± 0.12 kcal/mol

Sequence: SAGGSAGGSAGGSKKTLTLPITITVTVTYTNEDGSTTETTYTYTLTINFEVSENDTGLLSAGGSAGGSAGGS [r10_1133_TrMRF]
- folding stability dG unfold [1]: 2.92 ± 0.071 kcal/mol
- folding stability dG unfold [2]: 3.269 ± 0.013 kcal/mol
- folding stability dG unfold [3]: 2.23 ± 0.062 kcal/mol

Sequence: SAGGSAGGSAGGSKLKIELNEDGTLRIVNEDTNEVYEIKLELPPPPPVETEVKYVSLEDLSAGGSAGGSAGG [r11_352_TrROS_Hall]
- folding stability dG unfold [1]: 0.47 ± 0.31 kcal/mol
- folding stability dG unfold [2]: 0.842 ± 0.26 kcal/mol
- folding stability dG unfold [3]: 0.604 ± 0.18 kcal/mol

Sequence: SAGGSAGGSAGGSKMYKIKIVNKKTKKVITVEVSEEDIEKALEAAKKAGVEKIEIEEVPSAGGSAGGSAGGS [r4_102_TrROS_Hall]
- folding stability dG unfold [1]: 1.82 ± 0.13 kcal/mol
- folding stability dG unfold [2]: 1.7 ± 0.12 kcal/mol
- folding stability dG unfold [3]: 2.03 ± 0.17 kcal/mol

Sequence: SAGGSAGGSAGGSKYIVIRIPGSVDELIDYLRDSGFKIKIESVEYDPPNGEFYVVFKIKSAGGSAGGSAGGS [r4_315_TrROS]
- folding stability dG unfold [1]: 2.87 ± 0.052 kcal/mol
- folding stability dG unfold [2]: 3.063 ± 0.025 kcal/mol
- folding stability dG unfold [3]: 2.53 ± 0.073 kcal/mol

Sequence: SAGGSAGGSAGGSKYVVIRVKKSVDELKDALKKAGFKVKIVSVYYDKENKEIYVVVKIESAGGSAGGSAGGS [r4_315_TrROS_Hall]
- folding stability dG unfold [1]: 4.16 ± 0.17 kcal/mol
- folding stability dG unfold [2]: 4.45 ± 0.14 kcal/mol
- folding stability dG unfold [3]: 3.7 ± 0.15 kcal/mol

Sequence: SAGGSAGGSAGGSLIVPAKDAVRFAEEWRRRFGGRFEIRGIPGIPFVPILVRPPDPAEFSAGGSAGGSAGGS [r4_419_TrMRF]
- folding stability dG unfold [1]: 0.491 ± 0.097 kcal/mol
- folding stability dG unfold [2]: 0.703 ± 0.096 kcal/mol
- folding stability dG unfold [3]: -0.418 ± 0.38 kcal/mol

Sequence: SAGGSAGGSAGGSLPFLKAKFTFTVRATVTVTVTDDDGKTTTEEFELETTVTVTLEPKPSAGGSAGGSAGGS [r4_162_TrROS_Hall]
- folding stability dG unfold [1]: 3.1 ± 0.2 kcal/mol
- folding stability dG unfold [2]: 3.45 ± 0.07 kcal/mol
- folding stability dG unfold [3]: 2.88 ± 0.15 kcal/mol

Sequence: SAGGSAGGSAGGSLSSNGSSLPPVPPAPVTDEPVEFPTPVLVTVSYYPLTGERRVEVLLSAGGSAGGSAGGS [r4_305_JUSTAS]
- folding stability dG unfold [1]: 0.178 ± 0.068 kcal/mol
- folding stability dG unfold [2]: 0.272 ± 0.07 kcal/mol
- folding stability dG unfold [3]: -0.291 ± 0.038 kcal/mol

Sequence: SAGGSAGGSAGGSMEFEVAEVFPDGWVVLRFPDGSRYRARLALDPETGEAKLLSLEPLPSAGGSAGGSAGGS [r4_247_TrMRF]
- folding stability dG unfold [1]: 4.15 ± 0.2 kcal/mol
- folding stability dG unfold [2]: 4.41 ± 0.071 kcal/mol
- folding stability dG unfold [3]: 3.27 ± 0.077 kcal/mol

Sequence: SAGGSAGGSAGGSMEITVETYPEVPLVRFTLPGGELVLLPVPPDVPEEEIRALAEALLASAGGSAGGSAGGS [r10_33_JUSTAS]
- folding stability dG unfold [1]: 0.874 ± 0.12 kcal/mol
- folding stability dG unfold [2]: 0.833 ± 0.15 kcal/mol
- folding stability dG unfold [3]: 0.897 ± 0.025 kcal/mol
